Results: US6682911 (GENERAL HOSPITAL, dated 2004)

Target: T1, human laminin β1 subunit (human, UniProt P07942 22-1786)
T1 construct: 185 kDa chain from laminin 12 isolated from human placental chorionic villi, reduced and resolved by SDS-PAGE; also called 185 kDa band; 185 kDa chain
Experiment: trimer isolated from placenta; non-reducing then reducing SDS-PAGE and peptide sequencing of the chains
Text: Protein sequencing was done according to Aebersold et al. (1987). The complex laminin 5-laminin 7 was run on a polyacrylamide gel in the presence of 2-mercaptoethanol and blotted onto a nitrocellulose membrane (Biorad). The 190 kDa band of β2 and the 165 kDa α3 band were separately excised and digested by protease trypsin. The digested product was separated by HPLC and one fragment was sequenced on an Applied Biosystems sequenator (Applied Biosystems, Foster City, Calif.). The 205 kDa chain contained a sequence identical to human laminin α2, and was thus identified as human laminin α2 subunit. The 185 kDa produced two peptides identical to human β1, and was thus identified as human laminin β1 subunit. The band at 170 kDa contained three sequences not contained in any known laminin chain. A N-terminal sequence of the 170 kDa chain was also determined. In addition, the N-terminal sequence was not identical to any known laminin sequence.

T1 sequence (P07942 22-1786 Q1022R limits assumed): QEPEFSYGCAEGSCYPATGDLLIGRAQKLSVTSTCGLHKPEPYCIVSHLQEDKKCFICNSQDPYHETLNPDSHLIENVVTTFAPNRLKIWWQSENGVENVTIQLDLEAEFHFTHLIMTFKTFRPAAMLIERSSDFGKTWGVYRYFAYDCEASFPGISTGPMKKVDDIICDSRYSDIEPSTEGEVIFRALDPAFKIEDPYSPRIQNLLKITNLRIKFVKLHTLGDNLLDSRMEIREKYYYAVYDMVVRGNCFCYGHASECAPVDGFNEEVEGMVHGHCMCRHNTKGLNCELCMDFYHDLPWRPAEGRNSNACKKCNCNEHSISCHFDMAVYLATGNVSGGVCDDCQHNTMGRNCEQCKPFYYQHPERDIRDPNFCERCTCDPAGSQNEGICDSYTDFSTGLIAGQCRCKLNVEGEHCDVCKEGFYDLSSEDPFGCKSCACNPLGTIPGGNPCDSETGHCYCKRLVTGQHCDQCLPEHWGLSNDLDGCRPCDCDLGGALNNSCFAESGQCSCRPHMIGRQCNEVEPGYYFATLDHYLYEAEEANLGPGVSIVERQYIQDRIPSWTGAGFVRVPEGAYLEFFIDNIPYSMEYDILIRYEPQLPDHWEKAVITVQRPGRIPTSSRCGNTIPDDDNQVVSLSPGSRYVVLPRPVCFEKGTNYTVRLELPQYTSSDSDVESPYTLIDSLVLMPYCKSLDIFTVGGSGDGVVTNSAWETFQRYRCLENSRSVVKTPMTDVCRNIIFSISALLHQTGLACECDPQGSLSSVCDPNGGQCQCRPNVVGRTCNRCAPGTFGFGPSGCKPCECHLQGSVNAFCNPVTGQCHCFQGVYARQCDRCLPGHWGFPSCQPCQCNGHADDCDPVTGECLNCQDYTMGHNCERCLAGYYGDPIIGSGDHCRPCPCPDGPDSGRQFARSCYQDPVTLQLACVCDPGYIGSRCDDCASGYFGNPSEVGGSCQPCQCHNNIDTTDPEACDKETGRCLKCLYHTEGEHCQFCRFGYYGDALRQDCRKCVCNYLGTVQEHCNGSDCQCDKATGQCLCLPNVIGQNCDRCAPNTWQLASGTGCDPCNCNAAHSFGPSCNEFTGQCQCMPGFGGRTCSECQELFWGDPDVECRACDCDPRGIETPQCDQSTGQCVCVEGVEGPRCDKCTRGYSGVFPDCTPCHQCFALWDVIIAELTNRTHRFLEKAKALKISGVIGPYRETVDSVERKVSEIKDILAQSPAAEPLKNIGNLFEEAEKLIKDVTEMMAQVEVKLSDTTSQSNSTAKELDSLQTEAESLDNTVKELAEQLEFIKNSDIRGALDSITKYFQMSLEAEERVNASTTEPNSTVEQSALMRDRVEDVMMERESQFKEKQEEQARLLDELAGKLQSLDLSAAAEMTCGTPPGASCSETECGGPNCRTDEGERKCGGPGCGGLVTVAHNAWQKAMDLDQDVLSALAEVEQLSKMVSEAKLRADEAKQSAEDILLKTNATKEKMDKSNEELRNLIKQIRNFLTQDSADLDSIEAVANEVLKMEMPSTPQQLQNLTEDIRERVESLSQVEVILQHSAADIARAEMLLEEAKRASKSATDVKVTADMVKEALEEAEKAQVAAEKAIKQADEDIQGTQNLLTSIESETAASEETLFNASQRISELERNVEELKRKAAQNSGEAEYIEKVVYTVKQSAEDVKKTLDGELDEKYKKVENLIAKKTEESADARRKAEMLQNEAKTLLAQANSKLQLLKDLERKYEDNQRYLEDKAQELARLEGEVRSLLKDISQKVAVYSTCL

B1: human laminin γ3 subunit (other)
chain: AGMGACYDGAGRPQRCLPVFENAAFGRLAQASHTCGSPPEDFCPHVGAAGAGAHCQRCDAADPQRHHNASYLTDFHSQDESTWWQSPSMAFGVQYPTSVNITLRLGKAYEITYVRLKFHTSRPESFAIYKRSRADGPWEPYQFYSASCQKTYGRPEGQYLRPGEDERVAFCTSEFSDISPLSGGNVAFSTLEGRPSAYNFEESPGLQEWVTSTELLISLDRLNTFGDDIFKDPKVLQSYYYAVSDFSVGGRCKCNGHASECGPDVAGQLACRCQHNTTGTDCERCLPFFQDRPWARGTAEAAHECLPCNCSGRSEECTFDRELFRSTGHGGRCHHCRDHTAGPHCERCQENFYHWDPRMPCQPCDCQSAGSLHLQCDDTGTCACKPTVTGWKCDRCLPGFHSLSEGGCRPCTCNPAGSLDTCDPRSGRCPCKENVEGNLCDRCRPGTFNLQPHNPAGCSSCFCYGHSKVCASTAQFQVHHILSDFHQGAEGWWARSVGGSEHSPQWSPNGVLLSPEDEEELTAPGKFLGDQRFSYGQPLILTFRVPPGDSPLPVQLRLEGTGLALSLRHSSLSGPQDARASQGGRAQVPLQETSEDVAPPLPPFHFQRLLANLTSLRLRVSPGPSPAGPVFLTEVRLTSARPGLSPPASWVEICSCPTGYTGQFCESCAPGYKREMPQGGPYASCVPCTCNQHGTCDPNTGICVCSHHTEGPSCERCLPGFYGNPFAGQADDCQPCPCPGQSACTTIPESGEVVCTHCPPGQRGRRCEVCDDGFFGDPLGLFGHPQPCHQCQCSGNVDPNAVGNCDPLSGHCLRCLHNTTGDHCEHCQEGFYGSALAPRPADKCMPCSCHPQGSVSEQMPCDPVTGQCSCLPHVTARDCSRCYPGFFDLQPGRGCRSCKCHPLGSQEDQCHPKTGQCTCRPGVTGQACDRCQLGFFGSSIKGCRACRCSPLGAASAQCHYNGTCVCRPGFEGYKCDRCHYNFFLTADGTHCQQCPSCYALVKEETAKLKARLTLTEGWLQGSDCGSPWGPLDILLGEAPRGDVYQGHHLLPGAREAFLEQMMGLEGAVKAAREQLQRLNKGARCAQAGSQKTCTQLADLEAVLESSEEEILHAAAILASLEIPQEGPSQPTKWSHLAIEARALARSHRDTATKIAATAWRALLASNTSYALLWNLLEGRVALETQRDLEDRYQEVQAAQKALRTAVAEVLPEAESVLATVQQVGADTAPYLALLASPGALPQKSRAEDLGLKAKALEKTVASWQHMATEAARTLQTAAQATLRQTEPLTMARSRLTATFASQLHQGARAALTQASSSVQAATVTVMGARTLLADLEGMKLQFPRPKDQAALQRKADSVSDRLLADTRKKTKQAERMLGNAAPLSSSAKKKGREAEVLAKDSAKLAKALLRERKQAHRRASRLTSQTQATLQQASQQVLASEARRQELEEAERVGAGLSEMEQQIRESRISLEKDIETLSELLARLGSLDTHQAPAQALNETQWALERLRLQLGSPGSLQRKLSLLEQESQQQELQIQGFESDLAEIRADKQNLEAILHSLPENCASWQ
notes: 170 kDa chain from laminin 12 isolated from human placental chorionic villi, reduced and resolved by SDS-PAGE; also called 170 kDa γ3 chain; 170 kDa band
B1: binds.
